{
  "source": "paper PMC5255556",
  "about": "“mTORC1 phosphorylates LARP6 to stimulate type I collagen expression” (Scientific Reports, 2017)",
  "binders": {"B1": {"name": "serine-threonine kinase receptor-associated protein (STRAP) (natural protein, human (endogenous in HLFs), UniProt Q9Y3F4 1-350, looked up)", "chain": "MAMRQTPLTCSGHTRPVVDLAFSGITPYGYFLISACKDGKPMLRQGDTGDWIGTFLGHKGAVWGATLNKDATKAATAAADFTAKVWDAVSGDELMTLAHKHIVKTVDFTQDSNYLLTGGQDKLLRIYDLNKPEAEPKEISGHTSGIKKALWCSEDKQILSADDKTVRLWDHATMTEVKSLNFNMSVSSMEYIPEGEILVITYGRSIAFHSAVSLDPIKSFEAPATINSASLHPEKEFLVAGGEDFKLYKYDYNSGEELESYKGHFGPIHCVRFSPDGELYASGSEDGTLRLWQTVVGKTYGLWKCVLPEEDSGELAKPKIGFPETTEEELEEIASENSDCIFPSAPDVKA", "notes": "STRAP, serine-threonine kinase receptor-associated protein, endogenous in human lung fibroblasts, detected with anti-STRAP antibody; source: endogenous, HLF lysate"}},
  "key": {"[1]": {"biological_target": "T1, HA-LARP6 S348A/S409A mutant, full length (UniProt Q9BRS8 1-491, S348A | S409A)", "T1 construct": "LARP6 (La ribonucleoprotein domain family, member 6), full-length, with S348A and S409A; Made by QuickChange site-directed mutagenesis; expressed from adenovirus; source: HLFs (human lung fibroblasts), adenovirus-transduced, in lysate or in lysed microsomal fraction", "T1 sequence (looked up)": "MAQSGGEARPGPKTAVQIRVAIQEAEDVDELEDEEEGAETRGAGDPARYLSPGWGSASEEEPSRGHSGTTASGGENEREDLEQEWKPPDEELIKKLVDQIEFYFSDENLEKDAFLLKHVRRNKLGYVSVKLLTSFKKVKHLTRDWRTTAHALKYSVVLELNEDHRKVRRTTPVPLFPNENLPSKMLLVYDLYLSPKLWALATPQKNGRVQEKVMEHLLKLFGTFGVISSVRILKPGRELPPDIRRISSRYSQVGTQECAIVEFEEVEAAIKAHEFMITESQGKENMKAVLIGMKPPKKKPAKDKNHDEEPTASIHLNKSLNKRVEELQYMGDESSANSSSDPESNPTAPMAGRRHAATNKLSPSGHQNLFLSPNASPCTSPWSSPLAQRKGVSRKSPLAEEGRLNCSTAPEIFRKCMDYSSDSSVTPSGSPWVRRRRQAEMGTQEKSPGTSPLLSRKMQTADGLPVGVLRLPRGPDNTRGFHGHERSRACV", "assay": "co-IP; HLFs transduced with HA-LARP6 adenovirus; lysate in 50 mM Tris-HCl pH 7.5, 150 mM NaCl, 0.5% NP-40, 1 mM DTT; IP with anti-HA antibody 3 h at 4 °C, protein A/G-agarose, blot with anti-STRAP; cells untreated, treated with rapamycin, or with raptor knockdown (shRNA)", "conditions": "partners not purified"}, "[2]": {"biological_target": "T2, wt HA-LARP6 (La ribonucleoprotein domain family, member 6), full length (UniProt Q9BRS8 1-491)", "T2 construct": "LARP6 (La ribonucleoprotein domain family, member 6), full-length, re-cloned from pcDNA3 into pAd-CMV-Track; In cells the protein is a mixture of phosphorylated isoforms; The construct is described in earlier work of the authors; also called wt LARP6; FL HA-LARP6; source: HLFs (human lung fibroblasts), adenovirus-transduced, in lysate or in lysed microsomal fraction", "T2 sequence (looked up)": "T1 sequence (looked up) with A348S, A409S", "assay": "co-IP; HLFs transduced with HA-LARP6 adenovirus; lysate in 50 mM Tris-HCl pH 7.5, 150 mM NaCl, 0.5% NP-40, 1 mM DTT; IP with anti-HA antibody 3 h at 4 °C, protein A/G-agarose, blot with anti-STRAP; cells untreated, treated with rapamycin, or with raptor knockdown (shRNA)", "conditions": "partners not purified"}},
  "note": "Where a chain is given by its changes, count along the chain named.",
  "data": [
    {"binder": "B1", "values": [
      {"measurement": "STRAP pulled down relative to wt HA-LARP6", "setting": "[1]", "result": "~50", "unit": "% less than wt HA-LARP6"},
      {"measurement": "fraction of STRAP pulled down after rapamycin relative to untreated cells", "setting": "[2]", "result": "~0.33 fraction of untreated"}
    ]}
  ]
}
